This assay has as its target T1, SARS-CoV-2 wildtype (WT) spike extracellular domain trimer (proline substitutions 2P or 6P, mutated furin … (SARS-CoV-2, UniProt P0DTC2)).
T1 construct: also called WT spike trimer
Particulars: both partners purified.

B1: JMB2002 IgG (antibody, V domains shown)
VH: QVQLVQSGAEVKKPGSSVKVSCKASGGTFSSYAISWVRQAPGQGLEWMGRIIPIFGTANYAQKFQGRVTITADESTSTAYMELSSLRSEDTAVYYCASLASYSSGWEDVFDIWGQGTMVTVSS
VL: DIQMTQSPSSLSASVGDRVTITCRASQGISSWLAWYQQKPGKAPKLLIYDASNLETGVPSRFSGSGSGTDFTFTISSLQPEDIATYYCQQYDNLPLTFGGGTKVEIK
notes: copies: 2 + 2
As for B1, the Kd – broadly, the equilibrium constant for the complex coming apart – amounted to 0.5 ± 0.3 nM.

B2: JMB2002 Fab (Fab, V domains shown)
VH: QVQLVQSGAEVKKPGSSVKVSCKASGGTFSSYAISWVRQAPGQGLEWMGRIIPIFGTANYAQKFQGRVTITADESTSTAYMELSSLRSEDTAVYYCASLASYSSGWEDVFDIWGQGTMVTVSS
VL: DIQMTQSPSSLSASVGDRVTITCRASQGISSWLAWYQQKPGKAPKLLIYDASNLETGVPSRFSGSGSGTDFTFTISSLQPEDIATYYCQQYDNLPLTFGGGTKVEIK
notes: also called Fab from JMB2002
In turn, B2 showed a Kd of 12.2 ± 11.6 nM.
